Laboratory results published in US20240083999A1 (published 2024).

B1: JYK-D12/JYK-D12 homodimer (VHH)
chain: QVQLVESGGGLVQPGGSLGLSCAASGFTLAYYGIGWFRQAPGKEREGVACISSSDLSTYYADSVKGRFTISRDNAKDTVYLQMNSLKPEDTAVYYCAAGTWDLKFGYSRSNCVRSYEYDYWGQGTQVTVSSGGGGSGGGGSGGGGSQVQLVESGGGLVQPGGSLGLSCAASGFTLAYYGIGWFRQAPGKEREGVACISSSDLSTYYADSVKGRFTISRDNAKDTVYLQMNSLKPEDTAVYYCAAGTWDLKFGYSRSNCVRSYEYDYWGQGTQVTVSS
B2: hIL-6-binding VHH JYK-A9 (Trx/JYK-A9/E) (VHH)
VHH: QVQLVESGGGLVQAGDSLTLSCAASGRPFSSFAMGWFRQAPGKEREFVAAITWSRGTTHYADSVKGRFTISGDNAKNTVFLQMNSLKPEDTAVYYCAAADGWKVVSTASPAYDYWGQGTQVTVSS
B3: hIL-6-binding VHH JYK-H9 (Trx/JYK-H9/E) (VHH)
VHH: QLQLVETGGGLVQPGGSLRLSCAASGFTLDYYAIGWFRQAPGKEREGVSCLSSSDRSTYYVDSVKGRFTISRDDDKNTAYLQMNSLKPEDTATYYCAAGTWDLKWGYNISACVGSYEYDYWGQGTQVTVSS
B4: hIL-6-binding VHH JYK-D12 (Trx/JYK-D12/E) (VHH)
VHH: QLQLVESGGGLVQPGGSLGLSCAASGFTLAYYGIGWFRQAPGKEREGVACISSSDLSTYYADSVKGRFTISRDNAKDTVYLQMNSLKPEDTAVYYCAAGTWDLKFGYSRSNCVRSYEYDYWGQGTQVTVSS
B5: hIL-6-binding VHH JYK-F12 (Trx/JYK-F12/E) (VHH)
VHH: QVQLAETGGGSVQAGGSLTLSCAASGRTFSSRAMGWFRQAPGKEREFVAVISWTGSPYYTDSVKGRFTISRDDAKNTVYLQMNSLKPEDTAVYYCAATSEHVMLVVTTRGGYDYWGQGTQVTVSS
B6: hIL-6-binding VHH JYK-A1 (Trx/JYK-A1/E) (VHH)
VHH: QLQLAETGGGLVQPGGSLRLSCAASGFTLDYYAVGWFRQAPGKEREGISCISSSDLKTYYADSVKGRFTISRDYAKSTVSLQMNSLKPEDTGVYYCAAGTWDLKFGYNISACVGSYEYDYWDQGTQVTVSS

target: T1, human interleukin 6 (hIL-6) (UniProt P05231 30-212); experiment: ELISA
T1 sequence (P05231 30-212): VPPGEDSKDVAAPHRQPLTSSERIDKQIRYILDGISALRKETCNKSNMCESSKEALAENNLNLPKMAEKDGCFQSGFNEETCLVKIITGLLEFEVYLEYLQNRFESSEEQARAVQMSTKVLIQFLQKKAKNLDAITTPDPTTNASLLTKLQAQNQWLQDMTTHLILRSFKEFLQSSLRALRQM

Row | EC50 [pM] | Binder
1 | 84.2 | B1

target: T1, human interleukin 6 (hIL-6); experiment: ELISA; remark: another data set of the same source

Row | EC50 [pM] | Binder
2 | 27700 | B2
3 | 811 | B3
4 | 324 | B4
5 | 14400 | B5
6 | 795 | B6
